The text below walks through data of PMC8568920 (2021).

Broadly, the Kd is the constant that tells how readily two partners part at equilibrium. Lower therefore signals tighter binding.

The target in the assay is biotinylated lysocin E derivative, natural type (biotin (position not given); fatty acid chain moiety). Nature of the assay: BLI. A general note: Biolayer interferometry detects binding as a change in optical thickness at a sensor tip.

B1: recombinant human apolipoprotein A-I ∆NM variant (domain or fragment)
chain: PVTQEFWDNLEKETEGLRQEMSKDLEEVKAKVQPYLDDFQKKWQEEMELYRQKVEPLRAELQEGARQKLHELQEKLSPLGTHLAPYSDELRQRLAARLEALKENGGARLAEYHAKATEHLSTLSEKAKPALEDLRQGLLPVLESFKVSFLSALEEYTKKLNTQ
On to B1, for which the Kd is 5.6 µM.
